# Measurements published in the supplement of paper PMC9112550, “Optimization of the antimicrobial peptide Bac7 by deep mutational scanning” (BMC Biology, 2022).
# System: Escherichia coli TOP10
# Assay: shrunken log2 fold change of peptide-encoding DNA abundance (4.5 h post-induction vs induction); higher = less antimicrobial activity (less host growth inhibition)
# Settings: time post-induction: 4.5 h; library: site-saturation at positions 5, 18, 19, 20
# 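Further: peptides expressed intracellularly from a pBAD plasmid library in pooled LB shake-flask culture, induced with 0.3% L-arabinose, DNA abundance read by NGS, three biological replicates, DESeq2 with apeglm shrinkage.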
row,Sequence,shrunken log2 fold change
1,RRIRRRPPRLPRPRPRPLKSPRP,-0.215
2,RRIRRRPPRLPRPRPRPLLIPRP,0.145
3,RRIRRRPPRLPRPRPRPLLSPRP,0.148
4,RRIRRRPPRLPRPRPRPLNKPRP,0.0514
5,RRIRRRPPRLPRPRPRPLPQPRP,0.436
6,RRIRRRPPRLPRPRPRPLQQPRP,0.0366
7,RRIRRRPPRLPRPRPRPLQYPRP,0.615
8,RRIRRRPPRLPRPRPRPLRDPRP,1.05
9,RRIRRRPPRLPRPRPRPLRMPRP,1.2
10,RRIRRRPPRLPRPRPRPLSRPRP,0.0601
11,RRIRRRPPRLPRPRPRPLVDPRP,0.106
12,RRIRRRPPRLPRPRPRPLVMPRP,0.164
13,RRIRRRPPRLPRPRPRPLVRPRP,0.033
14,RRIRRRPPRLPRPRPRPMAHPRP,0.0412
15,RRIRRRPPRLPRPRPRPMCFPRP,-0.0162
16,RRIRRRPPRLPRPRPRPMCRPRP,0.37
17,RRIRRRPPRLPRPRPRPMCSPRP,-0.0511
18,RRIRRRPPRLPRPRPRPMGPPRP,0.135
19,RRIRRRPPRLPRPRPRPMHIPRP,0.238
20,RRIRRRPPRLPRPRPRPMIIPRP,-0.171
21,RRIRRRPPRLPRPRPRPMITPRP,-0.172
22,RRIRRRPPRLPRPRPRPMKIPRP,0.186
23,RRIRRRPPRLPRPRPRPMMFPRP,0.284
24,RRIRRRPPRLPRPRPRPMPFPRP,-0.0201
25,RRIRRRPPRLPRPRPRPMPKPRP,0.0841

row,Sequence,shrunken log2 fold change
1,RRIRRRPPRLPRPRPRPMQHPRP,0.566
2,RRIRRRPPRLPRPRPRPMRKPRP,0.58
3,RRIRRRPPRLPRPRPRPMSVPRP,-0.0792
4,RRIRRRPPRLPRPRPRPMSWPRP,0.0104
5,RRIRRRPPRLPRPRPRPMTHPRP,-0.17
6,RRIRRRPPRLPRPRPRPMTMPRP,0.0735
7,RRIRRRPPRLPRPRPRPMVTPRP,0.247
8,RRIRRRPPRLPRPRPRPMYSPRP,-0.0989
9,RRIRRRPPRLPRPRPRPMYWPRP,-0.185
10,RRIRRRPPRLPRPRPRPNDYPRP,-0.407
11,RRIRRRPPRLPRPRPRPNGCPRP,0.00793
12,RRIRRRPPRLPRPRPRPNGDPRP,0.241
13,RRIRRRPPRLPRPRPRPNGEPRP,0.43
14,RRIRRRPPRLPRPRPRPNGVPRP,0.00234
15,RRIRRRPPRLPRPRPRPNHTPRP,-0.306
16,RRIRRRPPRLPRPRPRPNHYPRP,-0.314
17,RRIRRRPPRLPRPRPRPNKKPRP,-0.272
18,RRIRRRPPRLPRPRPRPNLYPRP,-0.0246
19,RRIRRRPPRLPRPRPRPNMDPRP,-0.442
20,RRIRRRPPRLPRPRPRPNMTPRP,-0.136
21,RRIRRRPPRLPRPRPRPNNQPRP,-0.0752
22,RRIRRRPPRLPRPRPRPNPTPRP,0.0244
23,RRIRRRPPRLPRPRPRPNQDPRP,0.125
24,RRIRRRPPRLPRPRPRPNQNPRP,0.14
25,RRIRRRPPRLPRPRPRPNRQPRP,-0.031

row,Sequence,shrunken log2 fold change
1,RRIRRRPPRLPRPRPRPNTHPRP,-0.126
2,RRIRRRPPRLPRPRPRPNTKPRP,0.191
3,RRIRRRPPRLPRPRPRPNVHPRP,-0.203
4,RRIRRRPPRLPRPRPRPNVPPRP,0.032
5,RRIRRRPPRLPRPRPRPNWTPRP,-0.285
6,RRIRRRPPRLPRPRPRPNWYPRP,-0.197
7,RRIRRRPPRLPRPRPRPNYAPRP,0.0933
8,RRIRRRPPRLPRPRPRPPAYPRP,0.618
9,RRIRRRPPRLPRPRPRPPDFPRP,-0.079
10,RRIRRRPPRLPRPRPRPPDIPRP,-0.0254
11,RRIRRRPPRLPRPRPRPPEMPRP,0.66
12,RRIRRRPPRLPRPRPRPPFDPRP,0.735
13,RRIRRRPPRLPRPRPRPPFFPRP,0.565
14,RRIRRRPPRLPRPRPRPPFQPRP,0.746
15,RRIRRRPPRLPRPRPRPPHHPRP,1.09
16,RRIRRRPPRLPRPRPRPPHLPRP,0.52
17,RRIRRRPPRLPRPRPRPPHRPRP,1.36
18,RRIRRRPPRLPRPRPRPPITPRP,0.13
19,RRIRRRPPRLPRPRPRPPKKPRP,1.12
20,RRIRRRPPRLPRPRPRPPLLPRP,0.675
21,RRIRRRPPRLPRPRPRPPMYPRP,0.0631
22,RRIRRRPPRLPRPRPRPPNEPRP,0.804
23,RRIRRRPPRLPRPRPRPPPHPRP,0.968
24,RRIRRRPPRLPRPRPRPPQKPRP,1.31
25,RRIRRRPPRLPRPRPRPPTNPRP,0.643

row,Sequence,shrunken log2 fold change
1,RRIRRRPPRLPRPRPRPPTQPRP,0.678
2,RRIRRRPPRLPRPRPRPPVWPRP,0.328
3,RRIRRRPPRLPRPRPRPPWCPRP,0.294
4,RRIRRRPPRLPRPRPRPPWTPRP,0.443
5,RRIRRRPPRLPRPRPRPPYMPRP,0.315
6,RRIRRRPPRLPRPRPRPQACPRP,0.0222
7,RRIRRRPPRLPRPRPRPQAEPRP,0.0907
8,RRIRRRPPRLPRPRPRPQCCPRP,0.49
9,RRIRRRPPRLPRPRPRPQCYPRP,-0.136
10,RRIRRRPPRLPRPRPRPQDDPRP,-0.0295
11,RRIRRRPPRLPRPRPRPQEAPRP,0.0364
12,RRIRRRPPRLPRPRPRPQFYPRP,-0.41
13,RRIRRRPPRLPRPRPRPQHIPRP,-0.338
14,RRIRRRPPRLPRPRPRPQIVPRP,-0.13
15,RRIRRRPPRLPRPRPRPQKCPRP,-0.288
16,RRIRRRPPRLPRPRPRPQKRPRP,0.13
17,RRIRRRPPRLPRPRPRPQMHPRP,0.354
18,RRIRRRPPRLPRPRPRPQNTPRP,-0.218
19,RRIRRRPPRLPRPRPRPQRIPRP,-0.00231
20,RRIRRRPPRLPRPRPRPQSSPRP,-0.0217
21,RRIRRRPPRLPRPRPRPQTDPRP,0.13
22,RRIRRRPPRLPRPRPRPQTGPRP,0.0354
23,RRIRRRPPRLPRPRPRPQVGPRP,0.149
24,RRIRRRPPRLPRPRPRPQYQPRP,-0.207
25,RRIRRRPPRLPRPRPRPQYWPRP,-0.147

row,Sequence,shrunken log2 fold change
1,RRIRRRPPRLPRPRPRPRAAPRP,0.833
2,RRIRRRPPRLPRPRPRPRCTPRP,0.0974
3,RRIRRRPPRLPRPRPRPRGEPRP,0.739
4,RRIRRRPPRLPRPRPRPRHAPRP,0.746
5,RRIRRRPPRLPRPRPRPRHDPRP,0.0104
6,RRIRRRPPRLPRPRPRPRKMPRP,0.163
7,RRIRRRPPRLPRPRPRPRLGPRP,0.76
8,RRIRRRPPRLPRPRPRPRMLPRP,0.486
9,RRIRRRPPRLPRPRPRPRMNPRP,0.545
10,RRIRRRPPRLPRPRPRPRMWPRP,0.431
11,RRIRRRPPRLPRPRPRPRNYPRP,0.143
12,RRIRRRPPRLPRPRPRPRQHPRP,0.288
13,RRIRRRPPRLPRPRPRPRRQPRP,0.554
14,RRIRRRPPRLPRPRPRPRRVPRP,0.347
15,RRIRRRPPRLPRPRPRPRSDPRP,0.323
16,RRIRRRPPRLPRPRPRPRSNPRP,0.224
17,RRIRRRPPRLPRPRPRPRTDPRP,0.438
18,RRIRRRPPRLPRPRPRPRTVPRP,0.693
19,RRIRRRPPRLPRPRPRPRWEPRP,0.0983
20,RRIRRRPPRLPRPRPRPRWFPRP,0.524
21,RRIRRRPPRLPRPRPRPRWHPRP,0.353
22,RRIRRRPPRLPRPRPRPRYAPRP,0.284
23,RRIRRRPPRLPRPRPRPRYIPRP,-0.12
24,RRIRRRPPRLPRPRPRPSAIPRP,0.0689
25,RRIRRRPPRLPRPRPRPSAKPRP,0.0742

row,Sequence,shrunken log2 fold change
1,RRIRRRPPRLPRPRPRPSAMPRP,0.378
2,RRIRRRPPRLPRPRPRPSASPRP,0.101
3,RRIRRRPPRLPRPRPRPSCAPRP,0.452
4,RRIRRRPPRLPRPRPRPSCHPRP,-0.0344
5,RRIRRRPPRLPRPRPRPSDQPRP,0.0918
6,RRIRRRPPRLPRPRPRPSERPRP,-0.0993
7,RRIRRRPPRLPRPRPRPSFLPRP,-0.268
8,RRIRRRPPRLPRPRPRPSGRPRP,0.0215
9,RRIRRRPPRLPRPRPRPSHVPRP,0.151
10,RRIRRRPPRLPRPRPRPSHYPRP,-0.131
11,RRIRRRPPRLPRPRPRPSKIPRP,0.0224
12,RRIRRRPPRLPRPRPRPSKQPRP,-0.118
13,RRIRRRPPRLPRPRPRPSLFPRP,0.196
14,RRIRRRPPRLPRPRPRPSLIPRP,-0.118
15,RRIRRRPPRLPRPRPRPSMVPRP,-0.298
16,RRIRRRPPRLPRPRPRPSNIPRP,-0.528
17,RRIRRRPPRLPRPRPRPSPPPRP,0.435
18,RRIRRRPPRLPRPRPRPSQDPRP,0.112
19,RRIRRRPPRLPRPRPRPSQHPRP,0.0591
20,RRIRRRPPRLPRPRPRPSQIPRP,0.092
21,RRIRRRPPRLPRPRPRPSQKPRP,-0.00949
22,RRIRRRPPRLPRPRPRPSQYPRP,0.0176
23,RRIRRRPPRLPRPRPRPSTFPRP,-0.02
24,RRIRRRPPRLPRPRPRPSVFPRP,0.141
25,RRIRRRPPRLPRPRPRPSVTPRP,-0.041
